The source of these data is patent US20250145729A1 (DENALI THERAPEUTICS, published 2025).

Changes are numbered by the printed parent chain. Numbers in names are those of the source.

T1: human CD98hc (human, UniProt P08195 109-529)
T1 construct: also called huCD98hc; CD98 heavy chain
T1 sequence: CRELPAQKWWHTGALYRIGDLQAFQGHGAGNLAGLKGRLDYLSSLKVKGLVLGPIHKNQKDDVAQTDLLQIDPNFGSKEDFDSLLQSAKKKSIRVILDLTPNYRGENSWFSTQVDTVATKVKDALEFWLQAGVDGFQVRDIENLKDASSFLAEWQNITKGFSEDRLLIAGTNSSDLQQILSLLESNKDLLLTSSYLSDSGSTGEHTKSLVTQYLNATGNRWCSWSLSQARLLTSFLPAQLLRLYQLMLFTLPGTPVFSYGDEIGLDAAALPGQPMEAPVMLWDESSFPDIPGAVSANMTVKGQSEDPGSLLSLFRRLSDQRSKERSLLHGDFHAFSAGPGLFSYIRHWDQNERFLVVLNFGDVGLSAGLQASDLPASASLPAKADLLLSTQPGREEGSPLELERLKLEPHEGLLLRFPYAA

T2: circularly permuted human TfR apical domain (human)
T2 construct: TfR residues 326-379 stand N-terminal to 194-296, loop 297-325 deleted; also called huTfR Apical Domain
T2 chain: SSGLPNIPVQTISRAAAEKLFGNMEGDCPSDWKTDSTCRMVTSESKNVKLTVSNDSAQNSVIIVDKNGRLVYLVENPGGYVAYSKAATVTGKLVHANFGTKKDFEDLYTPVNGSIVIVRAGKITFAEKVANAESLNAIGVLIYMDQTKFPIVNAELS

T3: circularly permuted cyno TfR apical domain (cynomolgus monkey)
T3 construct: same design as the human construct; also called cyTfR Apical Domain; cynomolgus TfR apical domain
T3 chain: T2 chain with R39K, S45N, N47S, R69G, Y108D, T109S, N153K, E155D

B1: LLB2-1 (Fc fusion)
chain: APELLGGPSVFLFPPKPKDTLMISRTPEVTCVVVDVSHEDPEVKFNWYVDGVEVHNAKTKPREEQYNSTYRVVSVLTVLHQDWLNGKEYKCKVSNKALPAPIEKTISKAKGQPREPQVYTLPPSRDELTKNQVSLTCLVKGFYPSDIAVLWNSRFSLENNYKTTPPVLDSDGSFFLYSKLTVDKSRWQQGNIFACNVLHEALHNHYTFKNLSLSPGK
notes: Fc part only
B2: LLB2-27 (Fc fusion)
chain: B1 chain with N152M, S153N, R154H, S156T, L198M, N210P, S212P
notes: Fc part only
B3: LLB2-10-1 (Fc fusion)
chain: B1 chain with S156V, S212A
notes: Fc part only
B4: LLB2-10-8-d3 BV (Fc fusion)
chain: B1 chain with S156V, N191E, I192V, L198Y, S212A
notes: Fc part only; BV = bivalent
B5: LLB2-9 (Fc fusion)
chain: B1 chain with S156Q
notes: Fc part only
B6: LLB2-7 (Fc fusion)
chain: B1 chain with F155Y
notes: Fc part only
B7: LLB2-5 (Fc fusion)
chain: B1 chain with R154K
notes: Fc part only
B8: LLB2-8 (Fc fusion)
chain: B1 chain with S156E
notes: Fc part only
B9: LLB2-32 (Fc fusion)
chain: B1 chain with N152L, S153D, R154F, L198F, N210V, S212A
notes: Fc part only
B10: LLB2-10-7 (Fc fusion)
chain: B1 chain with S156V, N204S, S212A
notes: Fc part only
B11: LLB2-10-8 (Fc fusion)
chain: B1 chain with S156V, N191E, L198Y, S212A
notes: Fc part only
B12: LLB2-19 (Fc fusion)
chain: B1 chain with A148V, N159A, Y161V, N191Q, Y206V, S212V
notes: Fc part only
B13: LLB2-10-6 (Fc fusion)
chain: B1 chain with S156V, L198Y, S212A
notes: Fc part only
B14: LLB2-4 (Fc fusion)
chain: B1 chain with N152S
notes: Fc part only
B15: LLB2-29 (Fc fusion)
chain: B1 chain with N152Y, S153D, R154L, S156V, N210E, L211P, S212F
notes: Fc part only
B16: LLB2-10-8-d1 BV (Fc fusion)
chain: B1 chain with S156V, N191E, L198Y
notes: Fc part only; BV = bivalent
B17: LLB2-10-8-d2 BV (Fc fusion)
chain: B1 chain with S156V, N191E, I192V, L198Y
notes: Fc part only; changes read against LLB2-10-8; BV = bivalent
B18: LLS2.33.3 (Fc fusion)
chain: B1 chain with L150E, N152S, R154Q, F155Y, S156E, I192M, L198W
notes: Fc part only; also called LLB2.33.3
B19: LLB2-3 (Fc fusion)
chain: B1 chain with L150M
notes: Fc part only
B20: LLB2-10-4 (Fc fusion)
chain: B1 chain with A148V, S156V, S212A
notes: Fc part only
B21: LLB2-34 (Fc fusion)
chain: B1 chain with N152T, S153Q, R154F, S156A, L198I, N210V, L211P, S212Q
notes: Fc part only
B22: LLB2-10-8-d4 BV (Fc fusion)
chain: B1 chain with S156V, L198Y
notes: as for B17
B23: LLB2-10-5 (Fc fusion)
chain: B1 chain with S156V, N191E, S212A
notes: Fc part only
B24: LLB2-2 (Fc fusion)
chain: B1 chain with L150I
notes: Fc part only
B25: LLB2-10 (Fc fusion)
chain: B1 chain with S156V
notes: Fc part only
B26: 42.8.193 (Fc fusion)
chain: APEAAGGPSVFLFPPKPKDTLMISRTPEVTCVVVDVSHEDPEVKFNWYVDGVEVHNAKTKPREEQYNSTYRVVSVLTVLHQDWLNGKEYKCKVSNKALGAPIEKTISKAKGQPREPQVYTLPPSRDELTKNQVSLTCLVKGFYPSDIAVEWFYEAQKENNYKTTPPVLDSDGSFFLYSKLTVDKSRWQQGNLFACEVMHEALHNHYTYKLLSLSPGK
notes: bivalent; P329G+LALA
B27: 42.8.206 (Fc fusion)
chain: B26 chain with A155D, N159T
notes: bivalent; P329G+LALA
B28: 42.8.198 (Fc fusion)
chain: B26 chain with E158L, N159S
notes: bivalent; P329G+LALA
B29: 42.8.200 (Fc fusion)
chain: B26 chain with Q156S, N159T
notes: bivalent; P329G+LALA
B30: 42.8.203 (Fc fusion)
chain: B26 chain with Q156S, E158L, N159T
notes: bivalent; P329G+LALA
B31: 42.8.214 (Fc fusion)
chain: B26 chain with A155D, Q156S, E158L
notes: bivalent; P329G+LALA
B32: 42.8.205 (Fc fusion)
chain: B26 chain with A155D
notes: bivalent; P329G+LALA
B33: 42.8.196 (Fc fusion)
chain: B26 chain with E158L
notes: bivalent; P329G+LALA
B34: 42.8.215 (Fc fusion)
chain: B26 chain with A155D, Q156S, E158L, N159T
notes: bivalent; P329G+LALA
B35: 42.8.209 (Fc fusion)
chain: B26 chain with A155D, E158L, N159T
notes: bivalent; P329G+LALA
B36: 42.8.211 (Fc fusion)
chain: B26 chain with A155D, Q156S
notes: bivalent; P329G+LALA

The first test concerns the target T1, human CD98hc. Put plainly: SPR (Biacore). The procedure, abridged: (§1)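 Binding affinity (Kd) of the engineered Fc polypeptides for CD98hc was measured by surface plasmon resonance on a Biacore instrument. Clones were cloned, expressed and purified as Fc-Fab fusions carrying anti-BACE1 Fabs. They were tested in a bivalent format or in a monovalent knob/hole format with the CD98hc-binding site on the knob chain only. The text gives no concentrations, temperature, buffer or replicate numbers.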
(In SPR one partner is held on a chip, and binding of the other changes the refractive index at the surface.)
As to B1, the equilibrium dissociation constant (Kd) – broadly, the concentration at which binding is half-saturated – was 950 nM.
In the case of B2, the binding result is given as “no binding”.
The molecule B3 came in with a dissociation constant (Kd) of 795 nM.
As to B4, binding was put at a Kd of 490 nM.
Still for that read-out and setting: as for B5, the figure is 750 nM.
On the same count and under the same terms, as for B6, the figure is 3600 nM; as for B7, 1900 nM; as for B8, 790 nM.
For the molecule B9, the binding result was “no binding”.
B10 had a Kd of 1100 nM. That is a single-digit micromolar value.
Regarding B11, the Kd is 170 nM.
B12 came in with a dissociation constant Kd of 9200 nM.
The same measure, in the same setting: for B13 the value was 460 nM.
B14 returned a dissociation constant Kd of 1700 nM.
For B15, the binding result is recorded as “no binding”.
Regarding B16, the affinity, expressed as Kd, was 280 nM. In other words, the sub-micromolar range.
B17 gave a Kd of 490 nM.
Same read-out and setting: as for B18, the figure is 5400 nM; as for B19, 1200 nM; as for B20, 630 nM.
B21: the binding result is “no binding”.
Regarding B22, the Kd is 670 nM.
On the same count and under the same terms, as for B23, the figure is 390 nM; as for B24, 1300 nM.
Still for that read-out and setting: as for B25, the figure is 680 nM.

The target in another test is T4, cyno CD98hc (cynomolgus monkey).
T4 construct: also called cynomolgus CD98hc; cyCD98hc
Put plainly: SPR (Biacore). The procedure, abridged:
as §1
In turn, B1 returned a Kd of 4300 nM.
On the same count and under the same terms, for B3 the value was 4200 nM.
As to B4, the Kd is 2600 nM.
Same read-out and setting: for B5 the value was 3300 nM.
The molecule B8 returned a dissociation constant (Kd) of 3200 nM.
Same read-out and setting: for B10 the value was 6200 nM; for B11, 890 nM; for B13, 2100 nM.
B16: the dissociation constant (Kd) was 1500 nM.
The same measure, in the same setting: for B17 the value was 2300 nM.
B20: the Kd is 3000 nM. The Kd values of the last two molecules are within 1.5-fold of each other.
Regarding B22, the Kd is 2600 nM.
Same read-out and setting: as for B23, the figure is 2200 nM; as for B25, 2700 nM.

In a further test the target is T2, circularly permuted human TfR apical …. In words: SPR, supernatant, anti-Fab capture. The procedure: (§2) Clones were expressed in HEK293 cells. Supernatants were captured for SPR by GE Healthcare anti-human Fab capture kit and the affinity to human and cyno TfR apical domain was measured (Table 30). The clones in Table 30 were bivalent and each TfR-binding Fc polypeptide also contained P329G and LALA mutations.
B26 displayed a Kd of 1600 nM.
Consider B27, for which the affinity, expressed as Kd, was 827 nM.
Still for that read-out and setting: for B28 the value was 841 nM; for B29, 505 nM.
Turning to B30, the Kd was found to be 394 nM.
Turning to B31, the affinity, expressed as Kd, was 427 nM.
The same measure, in the same setting: as for B32, the figure is 1130 nM; as for B33, 924 nM; as for B34, 293 nM.
With B35, binding was put at a Kd of 380 nM.
The same measure, in the same setting: as for B36, the figure is 966 nM.

The next test concerns the target T3, circularly permuted cyno TfR apical …. Put plainly: SPR, supernatant, anti-Fab capture. The protocol:
as §2
With B26, the Kd was 13300 nM. This lies in the double-digit micromolar range.
The same measure, in the same setting: for B27 the value was 10800 nM; for B28, 12200 nM; for B29, 6210 nM.
The molecule B30 registered a Kd of 5460 nM. The Kd values of the last two molecules are within 1.5-fold of each other.
B31 displayed an equilibrium dissociation constant (Kd) of 6090 nM.
The same measure, in the same setting: for B32 the value was 11400 nM; for B33, 9340 nM.
Molecule B34 came in with a Kd of 4940 nM. Compared with the last molecule, the Kd is about 1.9-fold lower.
Same read-out and setting: as for B35, the figure is 6030 nM; as for B36, 10700 nM.
